In patent US20250115656A1 (Stanford University, published 2025):

Biological target: the molecule itself
Assay: cryo-EM in detergent; HS-AFM in lipid bilayer
Description: Briefly, for reconstituted lipids, we used a mixture of phospholipids, asolectin from soybean (Sigma-Aldrich, No. 11145). Asolectin (120 μg) was dissolved in chloroform and then evaporated under N2 gas to completely remove the solvent. Then, the lipids were suspended in 50 μL buffer A (20 mM HEPES-KOH pH 7.4, 100 mM NaCl, and 4% DDM) and sonicated for ˜1 min with a tip-sonicator. Next, dissolved membrane proteins (1 nmol) and MSP (50 μL, 1 mg/mL) (MSP1E3D1, Sigma-Aldrich, No. M7074) were added to the lipid suspension and mixed for ˜1 h while rotating in the dark at 4° C. Finally, we added 60 mg Bio-beads SM-2 (Bio-Rad, Hercules, CA, USA, No. 1523920) and dialyzed the samples in detergent overnight at 4° C. According to the manufacturer's protocol, nanodisc samples should be fractionated on a column to purify the nanodiscs based on size (˜10 nm in diameter).
A homemade HS-AFM operated in tapping mode was used (Shibata et al., 2017, 2018). An optical beam deflection detector detected the cantilever (Olympus, Tokyo, Japan: BL-AC10DS-A2) deflection using an infrared (IR) laser at 780 nm and 0.7 mW. The IR beam was focused onto the back side of the cantilever covered with a gold film through a ×60 objective lens (Nikon, Tokyo, Japan: CFI S Plan Fluor ELWD 60×). The reflected IR beam was detected by a two-segmented PIN photodiode. […]

B1: Wild-type ChRmine (M1-R304) (other)
chain: MAHAPGTDQMFYVGTMDGWYLDTKLNSVAIGAHWSCFIVLTITTFYLGYESWTSRGPSKRTSFYAGYQEEQNLALFVNFFAMLSYFGKIVADTLGHNFGDVGPFIIGFGNYRYADYMLTCPMLVYDLLYQLRAPYRVSCSAIIFAILMSGVLAEFYAEGDPRLRNGAYAWYGFGCFWFIFAYSIVMSIVAKQYSRLAQLAQDTGAEHSLHVLKFAVFTFSMLWILFPLVWAICPRGFGWIDDNWTEVAHCVCDIVAKSCYGFALARFRKTYDEELFRLLEQLGHDEDEFQKLELDMRLSSNGER
modifications: all-trans retinal covalently linked at K257 (Schiff base)
notes: Pump-like cation-conducting channelrhodopsin, purified from Sf9 cells in GDN/CHS detergent; It forms a homotrimer; The model covers residues 10-279; also called WT ChRmine; ChRmine WT
**Q.** Does B1 bind?
**A.** Result: binds
